From patent publication US20150253303A1 (FORSCHUNGSVERBUND BERLIN E V, published 2015)

B1: LRRC8A (leucine-rich repeat-containing protein 8, family member A), human (other, UniProt Q8IWT6 1-810, looked up)
chain: MIPVTELRYFADTQPAYRILKPWWDVFTDYISIVMLMIAVFGGTLQVTQDKMICLPCKWVTKDSCNDSFRGWAAPGPEPTYPNSTILPTPDTGPTGIKYDLDRHQYNYVDAVCYENRLHWFAKYFPYLVLLHTLIFLACSNFWFKFPRTSSKLEHFVSILLKCFDSPWTTRALSETVVEESDPKPAFSKMNGSMDKKSSTVSEDVEATVPMLQRTKSRIEQGIVDRSETGVLDKKEGEQAKALFEKVKKFRTHVEEGDIVYRLYMRQTIIKVIKFILIICYTVYYVHNIKFDVDCTVDIESLTGYRTYRCAHPLATLFKILASFYISLVIFYGLICMYTLWWMLRRSLKKYSFESIREESSYSDIPDVKNDFAFMLHLIDQYDPLYSKRFAVFLSEVSENKLRQLNLNNEWTLDKLRQRLTKNAQDKLELHLFMLSGIPDTVFDLVELEVLKLELIPDVTIPPSIAQLTGLKELWLYHTAAKIEAPALAFLRENLRALHIKFTDIKEIPLWIYSLKTLEELHLTGNLSAENNRYIVIDGLRELKRLKVLRLKSNLSKLPQVVTDVGVHLQKLSINNEGTKLIVLNSLKKMANLTELELIRCDLERIPHSIFSLHNLQEIDLKDNNLKTIEEIISFQHLHRLTCLKLWYNHIAYIPIQIGNLTNLERLYLNRNKIEKIPTQLFYCRKLRYLDLSHNNLTFLPADIGLLQNLQNLAITANRIETLPPELFQCRKLRALHLGNNVLQSLPSRVGELTNLTQIELRGNRLECLPVELGECPLLKRSGLVVEEDLFNTLPPEVKERLWRADKEQA
notes: whole, on cells; Used for endogenous LRRC8A and for transfected LRRC8A; Co-IPs were done on detergent lysates; also called endogenous LRRC8A; native LRRC8A
B2: LRRC8E, endogenous (native) human protein (other, UniProt Q6NSJ5 1-796, looked up)
chain: MIPVAEFKQFTEQQPAFKVLKPWWDVLAEYLTVAMLMIGVFGCTLQVTQDKIICLPNHELQENLSEAPCQQLLPRGIPEQIGALQEVKGLKNNLDLQQYSFINQLCYETALHWYAKYFPYLVVIHTLIFMVCTSFWFKFPGTSSKIEHFISILGKCFDSPWTTRALSEVSGENQKGPAATERAAATIVAMAGTGPGKAGEGEKEKVLAEPEKVVTEPPVVTLLDKKEGEQAKALFEKVKKFRMHVEEGDILYTMYIRQTVLKVCKFLAILVYNLVYVEKISFLVACRVETSEVTGYASFCCNHTKAHLFSKLAFCYISFVCIYGLTCIYTLYWLFHRPLKEYSFRSVREETGMGDIPDVKNDFAFMLHLIDQYDSLYSKRFAVFLSEVSESRLKQLNLNHEWTPEKLRQKLQRNAAGRLELALCMLPGLPDTVFELSEVESLRLEAICDITFPPGLSQLVHLQELSLLHSPARLPFSLQVFLRDHLKVMRVKCEELREVPLWVFGLRGLEELHLEGLFPQELARAATLESLRELKQLKVLSLRSNAGKVPASVTDVAGHLQRLSLHNDGARLVALNSLKKLAALRELELVACGLERIPHAVFSLGALQELDLKDNHLRSIEEILSFQHCRKLVTLRLWHNQIAYVPEHVRKLRSLEQLYLSYNKLETLPSQLGLCSGLRLLDVSHNGLHSLPPEVGLLQNLQHLALSYNALEALPEELFFCRKLRTLLLGDNQLSQLSPHVGALRALSRLELKGNRLEALPEELGNCGGLKKAGLLVEDTLYQGLPAEVRDKMEEE
notes: whole, on cells; Untagged endogenous protein in cell lysates; also called native LRRC8E

What was measured:
[1] = target: LRRC8D-GFP (human LRRC8D fused C-terminally to GFP) (human, UniProt Q7L1W4 1-858; P42212 1-238 = GFP); assay: cell-based or functional assay
[2] = target: LRRC8E-GFP (human LRRC8E fused C-terminally to GFP) (human, UniProt Q6NSJ5 1-796; P42212 1-238 = GFP); assay: cell-based or functional assay
[3] = target: LRRC8C-GFP (human LRRC8C fused C-terminally to GFP) (human, UniProt Q8TDW0 1-803; P42212 1-238 = GFP); assay: cell-based or functional assay
[4] = target: T1, KCC1 plasma membrane ion transporter, endogenous in HEK cells (UniProt Q9UP95 1-1085, limits assumed); assay: immunoprecipitation with LRRC8A antibody from WT HEK cell lysate, Western blot
T1 construct: whole, on cells; also called SLC12A4
T1 sequence (looked up): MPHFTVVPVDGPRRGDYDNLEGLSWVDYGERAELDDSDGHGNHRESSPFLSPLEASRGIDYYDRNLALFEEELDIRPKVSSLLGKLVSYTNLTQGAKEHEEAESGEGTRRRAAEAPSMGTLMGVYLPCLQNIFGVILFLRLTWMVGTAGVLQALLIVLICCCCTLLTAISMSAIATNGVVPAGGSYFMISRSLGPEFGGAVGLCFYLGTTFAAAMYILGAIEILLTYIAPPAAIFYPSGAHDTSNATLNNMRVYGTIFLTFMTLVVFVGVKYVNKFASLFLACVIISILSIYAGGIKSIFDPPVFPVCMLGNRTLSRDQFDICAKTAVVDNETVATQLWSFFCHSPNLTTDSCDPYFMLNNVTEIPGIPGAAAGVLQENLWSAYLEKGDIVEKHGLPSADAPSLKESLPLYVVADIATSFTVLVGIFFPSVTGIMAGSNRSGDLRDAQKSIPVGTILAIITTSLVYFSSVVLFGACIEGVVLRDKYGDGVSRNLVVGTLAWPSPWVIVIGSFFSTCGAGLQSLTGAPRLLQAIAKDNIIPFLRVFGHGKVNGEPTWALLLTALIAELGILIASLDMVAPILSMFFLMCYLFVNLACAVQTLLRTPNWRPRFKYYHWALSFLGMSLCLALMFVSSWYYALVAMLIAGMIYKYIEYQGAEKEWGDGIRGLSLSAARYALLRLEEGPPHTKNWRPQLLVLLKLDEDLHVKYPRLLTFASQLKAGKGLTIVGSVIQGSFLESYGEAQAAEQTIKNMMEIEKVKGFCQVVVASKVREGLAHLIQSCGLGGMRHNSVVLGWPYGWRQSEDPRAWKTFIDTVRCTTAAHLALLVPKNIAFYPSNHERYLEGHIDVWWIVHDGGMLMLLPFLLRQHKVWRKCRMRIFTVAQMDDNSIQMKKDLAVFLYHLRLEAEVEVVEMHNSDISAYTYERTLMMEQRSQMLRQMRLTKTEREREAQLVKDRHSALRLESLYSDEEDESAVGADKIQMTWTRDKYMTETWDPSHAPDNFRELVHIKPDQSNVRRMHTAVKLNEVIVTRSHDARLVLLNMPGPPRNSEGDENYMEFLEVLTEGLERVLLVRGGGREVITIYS

[5] = target: GFP-ClC-1 (human ClC-1 Cl- channel in pEGFP-C1) (human, UniProt P42212 1-238 = GFP; P35523 1-988); assay: co-immunoprecipitation from double-transfected HEK cells, Western blot
Excerpt: The changed banding pattern of the mutant might result from altered posttranslational modifications. n.t., non-transfected. (C) Immunofluorescence using HA antibody of non-permeabilized versus permeabilized HeLa cells transfected with GFPLRRC8A carrying an HA-tag as indicated. Overlays of GFP (green) and HA (red) labeling. Insets show exclusively HA-staining. Scale bar, 20 μm. (D) LRRC8A co-precipitated epitopetagged LRRC8B through LRRC8E in double-transfected HEK cells. LRRC8B and LRRC8D were poorly expressible. […] (F) Epitope-tagged LRRC8B through LRRC8E co-precipitated LRRC8A. (G) Heteromerization of endogenous LRRC8 proteins. LRRC8A co-precipitated LRRC8E (for which a suitable antibody was available) in immunoprecipitation with an LRRC8A antibody from wild-type (WT) HEK cell lysate, but not from the LRRC8A−/− knockout (KO, clone 3E7). […] Lysate equivalent to 25% of input was loaded as reference (input).
For co-immunoprecipitation, HEK cells were co-transfected with plasmids (6 μg total) encoding myc-tagged or untagged LRRC8A and N-terminal fusion constructs of LRRC8A-E or ClC-1 (or soluble GFP) on 10 cm dishes using PEI as described above. […] After four washes with 500 μl IP buffer, precipitates were eluted in 40 μl Lämmli sample buffer, separated by SDS-PAGE and analyzed by Western blot as indicated. […]

[6] = target: B1; assay: immunoprecipitation of endogenous proteins from WT HEK lysate

Row | Binder | V1/2 from Boltzmann fits (voltage-dependent inactivation of ICl(swell)) [1] [mV] | V1/2 from Boltzmann fits (voltage-dependent inactivation of ICl(swell)) [2] [mV] | V1/2 from Boltzmann fits (voltage-dependent inactivation of ICl(swell)) [3] [mV] | binding result [4] | binding result [5] | binding result [6]
1 | B1 | 72.4 | 45.9 | 116 | no binding | no binding | –
2 | B2 | – | – | – | – | – | binds
